Measurements published in patent US20030166587A1 (SIGNAL PHARMACEUTICALS, published 2003).
Non-standard residues stand in square brackets, D forms with d. No end group written: not given here. pS = N[C@@H](COP(=O)(O)O)C(=O)O

biological target: specific IκB E3 ubiquitin ligase activity of HeLa extract; experiment: cell-based or functional assay

Point of comparison: CDDRHD[pS]GLD[pS]M [pp11, doubly phosphorylated IκBα peptide], “IC50 of inhibition of pIκBα ubiquitination (in vitro ubiquitination assay in HeLa extract)” value 5 µM. Against it:
- CDDRHD[pS]GLD[pS]MKDEE [pp15, doubly phosphorylated IκBα peptide] — the same, 5 µM
- CD[pS]GLD[pS]M [pp7, doubly phosphorylated IκBα peptide (minimal size peptide tested)] — higher, 10 µM
- CKKERLLDDRHD[pS]GLDSMKDEE [ppS32, singly phosphorylated IκBα peptide] — higher, 400 µM
- CKKERLLDDRHDSGLD[pS]MKDEE [ppS36, singly phosphorylated IκBα peptide] — higher, 400 µM
